Experimental data as given in the supplement of paper PMC9112550, “Optimization of the antimicrobial peptide Bac7 by deep mutational scanning” (BMC Biology, 2022).

tested on: Escherichia coli TOP10; test: shrunken log2 fold change of peptide-encoding DNA abundance (4.5 h post-induction vs induction); higher = less antimicrobial activity (less host growth inhibition); details: time post-induction: 4.5 h; library: site-saturation at positions 5, 18, 19, 20
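Also: peptides expressed intracellularly from a pBAD plasmid library in pooled LB shake-flask culture, induced with 0.3% L-arabinose, DNA abundance read by NGS, three biological replicates, DESeq2 with apeglm shrinkage.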

Sequence	shrunken log2 fold change
RRIRARPPRLPRPRPRPPEGPRP	0.783
RRIRCRPPRLPRPRPRPKQKPRP	0.0322
RRIRYRPPRLPRPRPRPYHNPRP	-0.525
RRIRYRPPRLPRPRPRPFGEPRP	-0.00973
RRIRIRPPRLPRPRPRPMSSPRP	-0.215
RRIRARPPRLPRPRPRPGAMPRP	0.959
RRIRKRPPRLPRPRPRPLTVPRP	0.344
RRIRSRPPRLPRPRPRPCYLPRP	-0.586
RRIRKRPPRLPRPRPRPDNWPRP	0.235
RRIRVRPPRLPRPRPRPTTCPRP	-0.0091
RRIRWRPPRLPRPRPRPKRWPRP	0.441
RRIRKRPPRLPRPRPRPNMWPRP	-0.109
RRIRNRPPRLPRPRPRPKCSPRP	0.0607
RRIRPRPPRLPRPRPRPIWMPRP	0.0829
RRIRVRPPRLPRPRPRPYRPPRP	-0.462
RRIRIRPPRLPRPRPRPYVSPRP	-0.518
RRIRGRPPRLPRPRPRPQLNPRP	0.368
RRIRHRPPRLPRPRPRPASHPRP	0.0269
RRIRHRPPRLPRPRPRPRAQPRP	0.0972
RRIRYRPPRLPRPRPRPLVGPRP	-0.457
RRIRDRPPRLPRPRPRPWIVPRP	0.0145
RRIRARPPRLPRPRPRPISHPRP	-0.131
RRIRGRPPRLPRPRPRPIAHPRP	0.334
RRIRFRPPRLPRPRPRPRRIPRP	-0.116
RRIRIRPPRLPRPRPRPFYGPRP	0.0259

Sequence	shrunken log2 fold change
RRIRFRPPRLPRPRPRPEAAPRP	0.965
RRIRPRPPRLPRPRPRPCSCPRP	-0.516
RRIRLRPPRLPRPRPRPDHTPRP	-0.0215
RRIRLRPPRLPRPRPRPICSPRP	-0.0252
RRIRARPPRLPRPRPRPSNMPRP	-0.28
RRIRARPPRLPRPRPRPRWCPRP	0.0438
RRIRDRPPRLPRPRPRPSHHPRP	-0.344
RRIRNRPPRLPRPRPRPYGIPRP	-0.00992
RRIRTRPPRLPRPRPRPQVKPRP	-0.0733
RRIRDRPPRLPRPRPRPPEQPRP	0.261
RRIRWRPPRLPRPRPRPGDQPRP	0.175
RRIRMRPPRLPRPRPRPYRGPRP	0.148
RRIRRRPPRLPRPRPRPGGEPRP	0.356
RRIRFRPPRLPRPRPRPIVYPRP	-0.181
RRIRTRPPRLPRPRPRPMEIPRP	-0.00196
RRIRIRPPRLPRPRPRPSESPRP	-0.159
RRIRDRPPRLPRPRPRPYVFPRP	-0.18
RRIRNRPPRLPRPRPRPWCAPRP	-0.0696
RRIRPRPPRLPRPRPRPQQGPRP	0.14
RRIRERPPRLPRPRPRPFELPRP	-0.0731
RRIRNRPPRLPRPRPRPTDQPRP	0.362
RRIRLRPPRLPRPRPRPWVEPRP	-0.186
RRIRCRPPRLPRPRPRPRWSPRP	0.422
RRIRTRPPRLPRPRPRPPMNPRP	-0.399
RRIRLRPPRLPRPRPRPACTPRP	-0.128

Sequence	shrunken log2 fold change
RRIRVRPPRLPRPRPRPLLAPRP	0.343
RRIRRRPPRLPRPRPRPQWMPRP	0.139
RRIRKRPPRLPRPRPRPIVMPRP	0.0102
RRIRPRPPRLPRPRPRPHICPRP	-0.0442
RRIRPRPPRLPRPRPRPWVYPRP	-0.227
RRIRSRPPRLPRPRPRPFIHPRP	-0.154
RRIRCRPPRLPRPRPRPDFEPRP	-0.0276
RRIRWRPPRLPRPRPRPCAWPRP	0.0191
RRIRDRPPRLPRPRPRPQLLPRP	0.206
RRIRVRPPRLPRPRPRPYHDPRP	-0.182
RRIRHRPPRLPRPRPRPLYYPRP	-0.611
RRIRVRPPRLPRPRPRPDYSPRP	-0.107
RRIRNRPPRLPRPRPRPDNTPRP	-0.297
RRIRWRPPRLPRPRPRPDYVPRP	-0.208
RRIRARPPRLPRPRPRPIKAPRP	0.105
RRIRPRPPRLPRPRPRPTMKPRP	-0.179
RRIRFRPPRLPRPRPRPVAPPRP	0.243
RRIRQRPPRLPRPRPRPNNVPRP	-0.149
RRIRYRPPRLPRPRPRPSRDPRP	0.0382
RRIRYRPPRLPRPRPRPLDSPRP	-0.403
RRIRLRPPRLPRPRPRPGEQPRP	0.0657
RRIRARPPRLPRPRPRPMSAPRP	0.361
RRIRSRPPRLPRPRPRPWLRPRP	-0.241
RRIRSRPPRLPRPRPRPWHMPRP	0.17
RRIRLRPPRLPRPRPRPSRDPRP	0.152

Sequence	shrunken log2 fold change
RRIRYRPPRLPRPRPRPRKWPRP	0.149
RRIRYRPPRLPRPRPRPCYIPRP	-0.189
RRIRSRPPRLPRPRPRPDTFPRP	0.024
RRIRYRPPRLPRPRPRPCAQPRP	-0.00639
RRIRPRPPRLPRPRPRPRWTPRP	0.399
RRIRERPPRLPRPRPRPKLPPRP	0.0983
RRIRKRPPRLPRPRPRPNMFPRP	-0.155
RRIRARPPRLPRPRPRPVAIPRP	0.111
RRIRWRPPRLPRPRPRPQRTPRP	-0.0113
RRIRERPPRLPRPRPRPRIWPRP	0.143
RRIRRRPPRLPRPRPRPCVNPRP	-0.0549
RRIRMRPPRLPRPRPRPSAQPRP	0.623
RRIRKRPPRLPRPRPRPNIMPRP	-0.189
RRIRGRPPRLPRPRPRPFDKPRP	-0.663
RRIRHRPPRLPRPRPRPWSMPRP	-0.293
RRIRPRPPRLPRPRPRPCFTPRP	-0.307
RRIRRRPPRLPRPRPRPDFTPRP	0.0748
RRIRFRPPRLPRPRPRPMMVPRP	-0.112
RRIRCRPPRLPRPRPRPDRVPRP	-0.112
RRIRLRPPRLPRPRPRPQDPPRP	-0.101
RRIRMRPPRLPRPRPRPPGRPRP	0.849
RRIRRRPPRLPRPRPRPNFDPRP	-0.102
RRIRLRPPRLPRPRPRPVWIPRP	0.0148
RRIRIRPPRLPRPRPRPDLMPRP	-0.396
RRIRCRPPRLPRPRPRPAHEPRP	0.238

Sequence	shrunken log2 fold change
RRIRPRPPRLPRPRPRPTHHPRP	0.264
RRIRKRPPRLPRPRPRPFCFPRP	1.24
RRIRVRPPRLPRPRPRPGPAPRP	0.407
RRIRNRPPRLPRPRPRPHEFPRP	-0.13
RRIRLRPPRLPRPRPRPHWLPRP	-0.0104
RRIRVRPPRLPRPRPRPVAYPRP	-0.282
RRIRMRPPRLPRPRPRPMTHPRP	0.173
RRIRDRPPRLPRPRPRPDPDPRP	0.671
RRIRVRPPRLPRPRPRPHVSPRP	0.108
RRIRWRPPRLPRPRPRPAAHPRP	0.167
RRIRGRPPRLPRPRPRPHRHPRP	0.107
RRIRRRPPRLPRPRPRPHAVPRP	0.251
RRIRVRPPRLPRPRPRPMTFPRP	-0.0219
RRIRYRPPRLPRPRPRPYIKPRP	-1.3
RRIRERPPRLPRPRPRPPGCPRP	0.124
RRIRGRPPRLPRPRPRPDQNPRP	0.00612
RRIRVRPPRLPRPRPRPQTTPRP	0.213
RRIRTRPPRLPRPRPRPIIIPRP	-0.219
RRIRTRPPRLPRPRPRPTIRPRP	-0.0471
RRIRHRPPRLPRPRPRPSLAPRP	-0.219
RRIRHRPPRLPRPRPRPVDVPRP	-0.119
RRIRQRPPRLPRPRPRPYKSPRP	-0.248
RRIRGRPPRLPRPRPRPNYSPRP	-0.371
RRIRMRPPRLPRPRPRPDFTPRP	0.463
RRIRWRPPRLPRPRPRPINIPRP	-1.2
